# Data from patent publication US20240377400A1, “METHODS FOR TREATING A SUBTYPE OF COLORECTAL CANCER” (Cornell University, priority 2021, published 2024).
# Key:
# [1] = tested on: tumors from Prkci^fl/fl Prkcz^fl/fl Villin-cre (DKO) mice; assay: scRNAseq and IHC of DKO mouse intestinal tumors treated with PVHA or Galunisertib; format: in vivo
# Description: FIG. 3A illustrates the experimental design: Prkci^fl/flPrkcz^fl/fl (DKO) mice were treated either with PVHA (0.0375 mg/Kg twice per week) or Galunisertib (10 mg twice daily) as described. Intestinal tumors were analyzed by scRNAseq.
# To identify the mechanism of action of PVHA in the treatment of CMS4 tumors, scRNAseq was performed using 10× Genomics Chromium platform on tumors from Prkci^fl/fl Prkcz^fl/fl Villin-cre (DKO) mice (n=5) treated with PVHA for 14 weeks (n=3), as compared to those treated with Galunisertib (GAL) for 17 weeks (n=3), as shown in experimental design (FIG. 3A). Unsupervised clustering identified tumor and normal epithelial cells as well as stromal and immune cells with selective markers for each population (FIGS. 3B-3C). […] Among tumor clusters (0,4,6), a cell population with transcriptomic similarities to the recently identified “revival stem cells” (RSC; high Clu) in the vehicle treated tumors was identified (FIGS. 3F-3G).
# [2] = tested on: MTO-sgC tumors; assay: Subcutaneous MTO-sgC control tumors in syngeneic C57BL/6J mice treated with PEGPH20; format: in vivo, mouse; details: PEGPH20 0.0375 mg/Kg twice a week, 3 weeks
# Description: FIGS. 8F-8J illustrate subcutaneous injection of sgPrkci/Prkcz and sgC MTOs in WT mice. Mice were treated twice a week with Veh or PEGPH20 0.0375 mg/kg for 3 weeks (MTOs: sgC n=10, sgC PEGPH20-treated n=10, sgPrkci/Prkcz n=10, and sgPrkci/Prkcz PEGPH20-treated n=8). Experimental design (F); Immunohistochemistry (IHC) for HA, Masson's trichrome, and αSMA (G) staining quantification (H); tumor volume (I) and tumor weight (J). Scale bars, 100 μm.
# For colonoscopy-guided orthotopic injection in the colon submucosa using mouse tumor organoids (MTOs), a 10 μl organoid suspension of equivalent to 40-50 MTOs admixed with 10% Matrigel (Corning) was directly injected into the colonic submucosa of 7 weeks old C57BL/6 mice. 4 weeks after implantation, tumors were collected and analyzed histologically. Orthotopic tumor sizes were measured by caliper after mice were sacrificed. For xenografts using MTOs, a 100 μl cell suspension of equivalent to 0.5×10^6 cells of sgPrkci/Prkcz or sgC MTOs admixed with 30% Matrigel (Corning) was directly injected subcutaneously into the right flank of 7 weeks old C57BL/6 mice. […] Tumors were measured twice a week. Mice were euthanized three weeks after treatment and tumors were analyzed histologically. […]
# [3] = tested on: tumors from Prkci^fl/fl Prkcz^fl/fl Villin-cre (DKO) mice; assay: scRNAseq and IHC of DKO mouse intestinal tumors treated with PVHA or Galunisertib; format: in vivo; details: non-tumor area
molecule,measurement,setting,value
"PEGPH20: a PEGylated version of human recombinant PH20 hyaluronidase; clinical-grade pegylated hyaluronidase (Halozyme Therapeutics) (protein, UniProt P38567 36-490, looked up, PEGylated) Hyaluronidase PH-20: LNFRAPPVIPNVPFLWAWNAPSEFCLGKFDEPLDMSLFSFIGSPRINATGQGVTIFYVDRLGYYPYIDSITGVTVNGGIPQKISLQDHLDKAKKDITFYMPVDNLGMAVIDWEEWRPTWARNWKPKDVYKNRSIELVQQQNVQLSLTEATEKAKQEFEKAGKDFLVETIKLGKLLRPNHLWGYYLFPDCYNHHYKKPGYNGSCFNVEIKRNDDLSWLWNESTALYPSIYLNTQQSPVAATLYVRNRVREAIRVSKIPDAKSPLPVFAYTRIVFTDQVLKFLSQDELVYTFGETVALGASGIVIWGTLSIMRSMKSCLLLDNYMETILNPYIINVTLAAKMCSQVLCQEQGVCIRKNWNSSDYLHLNPDNFAIQLEKGGKFTVRGKPTLEDLEQFSEKFYCSCYSTLSCKEKADVKDTDAVDVCIADGVCIDAFLKPPMETEEPQIFYNASPSTLS",numbers of inferred interactions of tumor epithelial cells with immune cells,"[1]; CellphoneDB, as compared to GAL treatment",higher
same,"Cd81+Pdgfra− fibroblast around the Crypt, IHC",[1]; DKO intestine,induction
same,"Trophocyte-like fibroblast cluster (Cd34, Cd81)",[1]; scRNAseq,strongly increased
same,"Cd8 T cells, cell type proportion",[1]; scRNAseq T cells,increase
same,proportion of Treg,[1]; scRNAseq T cells,reduce
same,"fibroblast clusters associated with human CRC (Grem1/Sfrp1, Igf1/Cxcl14), CMS4 subtype (Sfrp2) and tumor initiation (Ptgs2/Spp1)",[1]; scRNAseq cell-type proportion,complete elimination
same,"tumor cells, cell percentage analysis","[1]; scRNAseq epithelial cells, compared to vehicle or GAL-treated",clear reduction
same,tumoral goblet population,[1]; scRNAseq goblet cells,reduction
same,"T cells, cell-type proportion",[1]; scRNAseq immune cells,increase
same,"myeloid cells, cell-type proportion",[1]; scRNAseq immune cells,decrease
same,TAN1 (anti-tumoral neutrophils),[1]; scRNAseq myeloid cells,increased
same,TAN2 (pro-tumoral neutrophils),[1]; scRNAseq myeloid cells,reduced
same,proportion of dendritic cells,[1]; scRNAseq myeloid cells,increased
same,percentage of stromal and immune cells,"[1]; scRNAseq, PVHA 0.0375 mg/Kg twice per week, 14 weeks, Galunisertib 10 mg twice daily, 17 weeks",decreased
same,mature goblets proportion,"[1]; scRNAseq, as compared to GAL",increased
same,Lgr5 Stem Cells population,"[1]; scRNAseq, population lost in the DKO intestine",recovered
same,number of stromal cells,"[1]; scRNAseq, without apparent changes in cell-type proportions",reduced
same,Clu IHC,[1]; tumor area,decrease
same,"immature goblets, IHC double staining for Alcian blue and Lyz1",[1]; tumor area,reduction
same,growth properties of MTO-sgC tumors,[2],did not affect
same,Olfm4 (Stem cell marker) IHC,[3],increase
